For test [1], the target named is T1, human Fcγ receptor RIIA (CD32a) (human, UniProt P12318 36-218).
T1 construct: bought recombinant protein; also called hFcγR
T1 sequence (looked up): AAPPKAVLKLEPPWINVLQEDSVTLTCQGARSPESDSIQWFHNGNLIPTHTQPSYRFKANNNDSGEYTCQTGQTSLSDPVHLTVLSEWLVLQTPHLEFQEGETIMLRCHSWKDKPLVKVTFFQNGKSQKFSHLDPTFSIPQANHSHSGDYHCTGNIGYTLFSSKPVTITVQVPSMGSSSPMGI
Kind of test: SPR (ProteOn XPR36), biotinylated Fc construct on NLC chip, hFcγR as analyte, KD,app.

The target of test [2] is T2, human Fcγ receptor RI (CD64) (human, UniProt P12314 16-288).
T2 construct: bought recombinant protein; also called hFcγRI; hFcγR
T2 sequence (P12314 16-288 limits assumed): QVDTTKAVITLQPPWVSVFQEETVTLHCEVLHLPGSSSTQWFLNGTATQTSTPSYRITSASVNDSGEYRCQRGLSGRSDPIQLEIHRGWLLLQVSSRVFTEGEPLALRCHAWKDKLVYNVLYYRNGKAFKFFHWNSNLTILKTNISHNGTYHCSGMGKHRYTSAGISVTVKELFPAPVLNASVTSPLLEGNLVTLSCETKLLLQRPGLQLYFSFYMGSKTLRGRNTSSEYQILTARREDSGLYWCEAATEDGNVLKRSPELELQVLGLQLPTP
Described as above.

In test [3] the target is T3, human Fcγ receptor RIIB/C (CD32b/c) (human, UniProt P31994 46-217).
T3 construct: bought recombinant protein; also called CD32c; hFcγR
T3 sequence (looked up): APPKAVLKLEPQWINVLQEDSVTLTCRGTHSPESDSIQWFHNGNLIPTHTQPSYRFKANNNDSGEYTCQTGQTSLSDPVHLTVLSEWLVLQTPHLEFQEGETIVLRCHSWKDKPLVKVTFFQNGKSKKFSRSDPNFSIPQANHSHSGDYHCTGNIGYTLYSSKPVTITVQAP
The description is as above.

For test [4], the target named is T3, human Fcγ receptor RIIB/C (CD32b/c). The test can be described thus: SPR (ProteOn XPR36), biotinylated Fc construct on NLC chip, hFcγR as analyte.
For test [5], the target named is T4, human Fcγ receptor RIIIA (CD16a) (human, UniProt P08637 17-208).
T4 construct: bought recombinant protein; also called hFcγR
T4 sequence (P08637 17-208 limits assumed): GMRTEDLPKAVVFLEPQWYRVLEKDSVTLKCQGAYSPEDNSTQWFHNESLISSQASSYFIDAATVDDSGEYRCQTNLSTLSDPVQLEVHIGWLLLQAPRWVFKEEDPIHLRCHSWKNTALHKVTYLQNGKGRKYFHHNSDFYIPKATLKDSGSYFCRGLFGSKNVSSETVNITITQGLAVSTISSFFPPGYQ
Described as above.

For test [6], the target named is T5, human CD47 (human, UniProt Q08722 19-139).
T5 construct: extracellular domain; also called CD47 ECD
T5 sequence (Q08722 19-139 limits assumed): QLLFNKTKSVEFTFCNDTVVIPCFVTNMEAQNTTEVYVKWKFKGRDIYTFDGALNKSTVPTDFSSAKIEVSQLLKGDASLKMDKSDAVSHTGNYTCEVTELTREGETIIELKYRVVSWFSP
The test can be described thus: SPR; protein made in mammalian cell. Background: SPR reads the build-up and loss of mass on a sensor chip optically.

Test [7] deals with T5, human CD47. Kind of test: SPR, 25 C, 1:1 Langmuir fit.

Take “Fc variant construct IgG4_S228P (Fc fusion)”: the Kd in test [1] is 810 nM; in test [2], 1 nM; in test [3], 850 nM.
On to “Fc variant construct IgG4_S228P, E233P, F234V, L235A, delG236 (Fc fusion)”, for which the figures for the Kd in test [1] and in test [2] were 1600 nM and 2100 nM, respectively.

B1: SIRP-α Fc construct with wildtype IgG2 Fc, SEQ ID NO: 126 (Fc fusion)
chain: EEELQIIQPDKSVLVAAGETATLRCTITSLFPVGPIQWFRGAGPGRVLIYNQRQGPFPRVTTVSDTTKRNNMDFSIRIGNITPADAGTYYCIKFRKGSPDDVEFKSGAGTELSVRAKPSERKCCVECPPCPAPPVAGPSVFLFPPKPKDTLMISRTPEVTCVVVDVSHEDPEVQFNWYVDGVEVHNAKTKPREEQFNSTFRVVSVLTVVHQDWLNGKEYKCKVSNKGLPAPIEKTISKTKGQPREPQVYTLPPSREEMTKNQVSLTCLVKGFYPSDIAVEWESNGQPENNYKTTPPMLDSDGSFFLYSKLTVDKSRWQQGNVFSCSVMHEALHNHYTQKSLSLSPGK
Regarding B1, the Kd came to 420 nM in test [1] and 700 nM in test [2]. In addition, the binding result in test [4] and in test [5] was “no binding (tested: 5000 nM)” in each case.

B2: SIRP-α Fc construct with Fc variant IgG1_AAA (L234A, L235A, G237A), SEQ ID NO: 124 (Fc fusion)
chain: EEELQIIQPDKSVLVAAGETATLRCTITSLFPVGPIQWFRGAGPGRVLIYNQRQGPFPRVTTVSDTTKRNNMDFSIRIGNITPADAGTYYCIKFRKGSPDDVEFKSGAGTELSVRAKPSDKTHTCPPCPAPEAAGAPSVFLFPPKPKDTLMISRTPEVTCVVVDVSHEDPEVKFNWYVDGVEVHNAKTKPREEQYNSTYRVVSVLTVLHQDWLNGKEYKCKVSNKALPAPIEKTISKAKGQPREPQVYTLPPSREEMTKNQVSLTCLVKGFYPSDIAVEWESNGQPENNYKTTPPVLDSDGSFFLYSKLTVDKSRWQQGNVFSCSVMHEALHNHYTQKSLSLSPGK
As to B2, the Kd in test [1] turned out to be 2300 nM; in test [2], 8000 nM. The binding result in test [4] and in test [5] was “no binding (tested: 5000 nM)” each time.

B3: SIRP-α D1 variant polypeptide of SEQ ID NO: 75 (receptor)
chain: EEELQVIQPDKSVLVAAGETATLRCTITSLFPVGPIQWFRGAGPGRELIYNQREGPFPRVTTVSDLTKRNNMDFSIRIGNITPADAGTYYCVKFRKGSPDDVEFKSGAGTELSVRAKPS
notes: engineered SIRP-α D1 domain
For B3, the Kd with human CD47 [6] and in the test with human CD47 [7] was 1.33 nM in each case.

B4: SIRP-α D1 variant polypeptide of SEQ ID NO: 76 (receptor)
chain: EEELQVIQPDKSVLVAAGETATLRCTATSLFPVGPIQWFRGAGPGRELIYNQREGPFPRVTTVSDLTKRNNMDFSIRIGNITPADAGTYYCVKFRKGSPDDVEFKSGAGTELSVRAKPS
notes: engineered SIRP-α D1 domain
For B4, the Kd in the test with human CD47 [6] and with human CD47 [7] was 7.41 nM in each case.

B5: SIRP-α D1 variant polypeptide of SEQ ID NO: 77 (receptor)
chain: EEELQIIQPDKSVLVAAGETATLRCTITSLFPVGPIQWFRGAGPGRVLIYNQRQGPFPRVTTVSDTTKRNNMDFSIRIGNITPADAGTYYCIKFRKGSPDDVEFKSGAGTELSVRAKPS
notes: engineered SIRP-α D1 domain
Take B5: the Kd with human CD47 [6] and in the test with human CD47 [7] was 0.114 nM in each case.

Values taken from US20200239543A1 (ALX ONCOLOGY, published 2020).
